Results as given in US20260132193A1 (XBIOTECH, published 2026).

Target: T1, recombinant human interleukin 1 alpha (IL-1α) (human, UniProt P01583 113-271)
T1 sequence (looked up): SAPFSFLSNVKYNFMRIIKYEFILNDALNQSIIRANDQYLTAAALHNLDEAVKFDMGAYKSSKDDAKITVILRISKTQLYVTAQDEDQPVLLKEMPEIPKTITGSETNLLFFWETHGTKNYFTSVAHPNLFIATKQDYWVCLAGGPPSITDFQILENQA
Test: cell-based or functional assay

B1: XIA11 human monoclonal antibody (antibody, V domains shown)
VH: QVQLVQSGAEVKKPGSSVKVSCKASGGRFTNYAILWVRQAPGQGLQWLGGIIPIFDETDHAQDFQDRLTITVDESMTTAYMELSSLRPEDTAIYYCATGSNSYYGLYWGQGTLVTVSS
VL: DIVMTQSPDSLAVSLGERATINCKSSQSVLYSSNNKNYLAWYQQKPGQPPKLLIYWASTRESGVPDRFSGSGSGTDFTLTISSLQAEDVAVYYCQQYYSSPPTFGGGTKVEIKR
  HUVEC-based potency assay (ICAM-1 expression by flow cytometry), IC50: 3.4 ng/mL
